Assays:
[1] = compound: O=C(O)[C@H]1CNC[C@@H](CN/N=C/c2ccc(-c3cc(C(F)(F)F)cc(C(F)(F)F)c3)o2)C1; experiment: (§1) Non-competitive inhibition of human GAT1 expressed in COS cells assessed as reduction in [2H6]GABA uptake by measuring [2H6]GABA Vmax at 10 uM preincubated for 25 mins followed by [3H]GABA addition and measured after 4 mins by liquid scintillation counting method (reference value: 570 +/- 53 amol/cell.min); type: cell-based
[2] = compound: O=C(O)[C@H]1CNC[C@@H](CN/N=C/c2ccc(-c3cccc4ccccc34)o2)C1; experiment: as §1; type: cell-based
[3] = compound: O=C(O)[C@H]1CNC[C@@H](CN/N=C/c2ccc(-c3cc(C(F)(F)F)cc(C(F)(F)F)c3)o2)C1; experiment: (§2) Non-competitive inhibition of human GAT1 expressed in COS cells assessed as reduction in [2H6]GABA uptake by measuring [2H6]GABA Km(app) at 10 uM preincubated for 25 mins followed by [3H]GABA addition and measured after 4 mins by liquid scintillation counting method (reference value: 12 +/- 1.2 uM); type: cell-based
[4] = compound: O=C(O)[C@H]1CNC[C@@H](CN/N=C/c2ccc(-c3cccc4ccccc34)o2)C1; experiment: as §2; type: cell-based
[5] = compound: O=C(O)[C@H]1CNC[C@@H](CN/N=C/c2ccc(-c3cc(C(F)(F)F)cc(C(F)(F)F)c3)o2)C1; experiment: as §1, with “30” for “10”; type: cell-based
[6] = compound: O=C(O)[C@H]1CNC[C@@H](CN/N=C/c2ccc(-c3cccc4ccccc34)o2)C1; experiment: as §1, with “30” for “10”; type: cell-based
[7] = compound: O=C(O)[C@H]1CNC[C@@H](CN/N=C/c2ccc(-c3cc(C(F)(F)F)cc(C(F)(F)F)c3)o2)C1; experiment: (§3) Non-competitive inhibition of human GAT1 expressed in COS cells assessed as reduction in [2H6]GABA uptake by measuring [2H6]GABA Km(app) at 30 uM preincubated for 25 mins followed by [3H]GABA addition and measured after 4 mins by liquid scintillation counting method (reference value: 12 +/- 1.2 uM); type: cell-based
[8] = compound: O=C(O)[C@H]1CNC[C@@H](CN/N=C/c2ccc(-c3cccc4ccccc34)o2)C1; experiment: as §3; type: cell-based
[9] = substrate: Cc1ccsc1C(=CCCN1CCC[C@@H](C(=O)O)C1)c1sccc1C; details: Homo sapiens; 100 nM
[10] = substrate: Cc1ccsc1C(=CCCN1CCC[C@@H](C(=O)O)C1)c1sccc1C; details: Homo sapiens; 100 nM; remark: listed apart in the source
[11] = substrate: Cc1ccsc1C(=CCCN1CCC[C@@H](C(=O)O)C1)c1sccc1C; details: Homo sapiens; 300 nM
Description: Mixed-type inhibition of human GAT1 expressed in COS cells assessed as reduction in [2H6]GABA uptake by measuring [2H6]GABA Vmax at 300 nM preincubated for 25 mins followed by [3H]GABA addition and measured after 4 mins by liquid scintillation counting method

[12] = substrate: Cc1ccsc1C(=CCCN1CCC[C@@H](C(=O)O)C1)c1sccc1C; details: Homo sapiens; 300 nM; remark: listed apart in the source

B1: Sodium- and chloride-dependent GABA transporter 1 (Homo sapiens), P30531 (protein)
chain: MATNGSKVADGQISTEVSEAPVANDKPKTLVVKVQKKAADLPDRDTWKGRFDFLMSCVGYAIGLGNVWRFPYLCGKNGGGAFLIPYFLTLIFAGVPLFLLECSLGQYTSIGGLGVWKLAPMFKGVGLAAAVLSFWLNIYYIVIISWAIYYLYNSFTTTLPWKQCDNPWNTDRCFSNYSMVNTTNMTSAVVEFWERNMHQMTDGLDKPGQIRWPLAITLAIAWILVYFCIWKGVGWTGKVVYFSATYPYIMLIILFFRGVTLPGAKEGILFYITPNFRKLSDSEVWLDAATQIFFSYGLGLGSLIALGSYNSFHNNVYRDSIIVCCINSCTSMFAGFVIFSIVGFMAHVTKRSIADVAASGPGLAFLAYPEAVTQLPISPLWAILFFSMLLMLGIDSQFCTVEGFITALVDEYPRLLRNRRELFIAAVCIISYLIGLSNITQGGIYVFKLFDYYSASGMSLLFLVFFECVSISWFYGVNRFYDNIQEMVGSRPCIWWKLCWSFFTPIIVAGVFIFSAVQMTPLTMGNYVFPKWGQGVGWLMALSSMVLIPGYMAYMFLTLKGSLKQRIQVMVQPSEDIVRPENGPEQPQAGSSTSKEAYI
B1 gave a Vmax (amol/cell.min) [1] of 341, a Vmax (amol/cell.min) [2] of 332 and a Km [3] of 8.2 µM. The Km [4] was 10.1 µM, the Vmax (amol/cell.min) [5] was 183 and the Vmax (amol/cell.min) [6] was 165. For the same protein, the Km [7] was 5.1 µM, the Km [8] was 5.7 µM and the Km [9] was 19.7 µM. The Vmax (amol/cell.min) [10] was 491, the Vmax (amol/cell.min) [11] was 419 and the Km [12] was 29.4 µM.

Reference: ChEMBL document CHEMBL4371014, “Novel Allosteric Ligands of γ-Aminobutyric Acid Transporter 1 (GAT1) by MS Based Screening of Pseudostatic Hydrazone Libraries” (J Med Chem, 2018)
